From US10632208B2, “Peptide-mediated drug delivery across epithelial barrier” (Purdue Research Foundation, priority 2017, dated 2020)

What was measured:
NF-κB(p65) [1] = assay: Confocal immunofluorescence of p65 localization in Caco-2 cells; format: cell-based, human; details: 30 min
Method: For antibody labeling in cells, Caco-2 cells, were grown to 40-50% confluence in four-chambered slides (Millipore). At the end of the treatment, the cells were fixed with 3.7% formaldehyde in PBS for 20 min and permeabilized and blocked with PBS containing 0.3% Triton X-100 and 3% BSA (Sigma-Aldrich) for 1 h at room temperature and then incubated with respective antibodies overnight at 4° C. Following antibody incubation, the cells were washed with PBS (3 cycles, 5 min) and incubated with FITC or Alexa Fluor 555-conjugated secondary antibody for 2 h at room temperature. The nuclei were stained with DAPI (500 ng/ml; Cell signaling) and slides were mounted in ProLong antifade reagent (Cell Signaling).
All images were acquired using a Nikon A1R MP Multiphoton (Nikon) Confocal fluorescence microscope using a 60× oil immersion objective equipped with the Nikon Elements software (Nikon) at the Purdue Bioscience Imaging Facility. The X-Z and Y-Z cross-sections were produced by orthogonal reconstructions from z-stack scanning at 0.15 μm intervals taken with 60× objective in 5 μm thick paraffin embedded tissue section. Three-dimensional reconstructions were performed using Nikon elements software (Nikon).

NF-κB(p65) [2] = assay: Immunoblot of NF-κB activation in Caco-2 cytoplasmic and nuclear extracts; format: cell-based, human
Method: To extract the proteins from Caco-2 cells, cells were seeded in 6-well plates for 14-21 days. Following treatment, the cells were washed, scraped from the bottom of 6-well plates, suspended in PBS, and pelleted by centrifugation. Total protein from Caco-2 cells was extracted using the M-PER Extraction Kit (Thermo Fisher Scientific). Detergent-insoluble (membrane) and detergent-soluble (cytosolic) proteins were isolated using a Mem-Per Eukaryotic Protein Extraction Kit (Thermo Fisher Scientific) while the cytosolic and nuclear proteins were extracted using NE-PER Extraction Reagent (Thermo Fisher Scientific). To extract proteins from ileal epithelial cells, the epithelial cell fraction from ileal tissues were isolated as described above and the detergent-insoluble and the detergent-soluble proteins were isolated using a Mem-Per Eukaryotic Protein Extraction Kit.
To extract total protein from intact bacterial cells, sample solvent buffer and sonication (3 cycles of […]) were used. To isolate the cell wall-associated proteins bacterial pellets were resuspended in 0.5 ml protein extraction buffer (0.5% SDS, 10 mM Tris at pH 6.9), and incubated at 37° C. for 30 min with agitation. The samples were centrifuged (14,000×g, 10 min, 4° C.), and the supernatants (containing cell wall-associated proteins) were retained. Halt proteases and phosphatase inhibitors (Thermo Fisher Scientific) were used during all of the protein extraction procedures. The protein concentrations were determined by BCA assay (Thermo Fisher Scientific), and separated on SDS-PAGE gels (10-12.5% polyacrylamide) and electro-transferred to polyvinylidene difluoride (PVDF) membrane (Millipore). The membranes were then blocked in 5% nonfat dry milk (NFDM) in 0.1 M Tris-buffered saline, pH 7.5 (TBS) containing 0.1% Tween 20 (TBST) for at least 1 h. All of the primary antibodies were diluted in 5% bovine serum albumin (BSA) or 5% NFDM in TBST and incubated overnight. Secondary antibodies (1:2000 in 5% NFDM in TBST) incubated for 1 h at 37° C., and a chemiluminescence method was performed using LumiGLO reagent (Cell Signaling). The membranes were exposed to X-ray films or visualized using the Chemi-Doc XRS system (Bio-Rad). To immunoprobe the same membrane with another antibody, the originally bound antibodies from the membranes were removed by incubating the membranes in Restore Western Blot Stripping Buffer (Thermo Fisher Scientific) according to the manufacturer's protocol. To compare the reaction intensities, the average band densities were determined using Quantity One software (Bio-Rad). Densitometry reports represent the mean±SEM after normalization to the loading control and is presented as % change of protein with the average for untreated cells (control) set at 100%. Immunoblots and densitometric reports are representative of 2-3 independent experiments.

human TNF-α = assay: ELISA of TNF-α in Caco-2 cell supernatants; format: cell-based; details: recombinant LAP 1 μg/mL, 8 h
Method: A semi-quantitative membrane-based RayBio Human Inflammation Antibody Array kit (Ray Biotech) was used to analyze a panel of 40 inflammatory mediators in Caco-2 cell supernatant infected either with the WT or lap^− strain (MOI, ˜50) at 37° C. for 1 h. After killing the extracellular bacteria by gentamicin (50 μg/mL), the Caco-2 cells were incubated for an additional 7 h at 37° C. Recombinant LAP (1 μg/mL) from ClearColi was incubated for 8 h with Caco-2 cells. After immunoblotting, the reaction intensity was quantified using NIH ImageJ software. The data were normalized and expressed as the mean fold changes as a ratio of lap^−/WT±SEM. For the ELISA, Caco-2 cell supernatants were centrifuged (2,000 rpm at 4° C. for 10 min) following treatment as above, and the quantification of TNF-α and IL-6 in was performed using human TNF-α and IL-6 ELISA kits (Ray Biotech) as per manufacturer's instruction. The quantification of TNF-α and IL-6 protein levels was performed in the ileal tissue lysates from mice using mouse TNF-α and IL-6 ELISA kits (Ray Biotech) as per manufacturer's instruction.

[3] = Caco-2 cells, LAP 1 μg/ml, 30 min (FIG. 5D)
[4] = LAP 1000 ng/mL or TNF-α 10 ng/mL
[5] = shRNA vector control Caco-2 cells, LAP 1 μg/mL (FIG. 5B)

B1: LAP: Listeria adhesion protein, alcohol acetaldehyde dehydrogenase of Listeria monocytogenes, 866 aa, 94 kDa; recombinant, histidine-tagged form SEQ ID NO: 10 (protein)
chain: MAIKENAAQEVLEVQKVIDRLADNGQKALKAFESYNQEQVDNIVHAMALAGLDQHMPLAKLAVEETGRGLYEDKCIKNIFATEYIWNNIKNNKTVGVINEDVQTGVIEIAEPVGVVAGVTPVTNPTSTTLFKAIIAIKTRNPIIFAFHPSAQRCSSAAAKVVYDAAIAAGAPEHCIQWVEKPSLEATKQLMNHDKVALVLATGGAGMVKSAYSTGKPALGVGPGNVPAYIDKTAKIKRSVNDIILSKSFDQGMICASEQAVIVDKEVAKEVKAEMEANKCYFVKGAEFKKLESYVINPEKGTLNPDVVGKSPAWIANQAGFKVPEDTKILVAEIKGVGDKYPLSHEKLSPVLAFIEAANQAEAFDRCEEMLVYGGLGHSAVIHSTDKEVQKAFGIRMKACRIIVNAPSAQGGIGDIYNGFIPSLTLGCGSYGKNSVSQNVSATNLLNVKRIADRRNNMQWFKLPPKIFFEKYSTQYLQKMEGVERVFIVTDPGMGSFKYVDVVIEHLKKRGNDVAYQVFADVEPDPSDVTVYKGAELMKDFKPDTIIALGGGSAMDAAKGMWLFYEHPEASFFGLKQKFLDIRKRTFKYPKLGGKAKFVAIPTTSGTGSEVTPFAVITDKENNIKYPLADYELTPDVAIVDAQYVTTVPAHITADTGMDVLTHAIESYVSVMASDYTRGLSIRAIELVFENLRESVLTGDPDAREKMHNASALAGMAFANAFLGINHSLAHKIGPEFHIPHGRANAILMPHVIRYNALKPKKHALFPRYESFRADEDYARISRIIGFPAATTEEGVKSLVDEIIKLGKDVGIDMSLKGQNVAKKDLDAVVDTLADRAFMDQCTTANPKQPLVSELKEIYLEAYKGV
modifications: Listeria monocytogenes
- localization of p65 (NF-κB(p65) [1]; Caco-2 cells, LAP 1 μg/mL or TNF-α 10 ng/mL): in the nucleus
- localization of p65 (NF-κB(p65) [1]; Hsp60 knocked-down Caco-2 cells): retained p65 within the cytoplasm
- localization of p65 (NF-κB(p65) [1]; shRNA vector control Caco-2 cells): nuclear translocation of p65
- increase of IKK-β protein expression (NF-κB(p65) [2]; [3]): 53±2%
- increase of p65 protein expression (NF-κB(p65) [2]; [3]): 63±5%
- protein expression levels of IKK-β and p65 (NF-κB(p65) [2]; Hsp60 knocked-down (hsp60::shRNA) Caco-2 cells, LAP 1 μg/mL): basal protein expression levels
- increase of IKKα in the cytosol relative to untreated cells (NF-κB(p65) [2]; LAP 1 μg/mL, 30 min): 267±7%
- increase of P-p65 in the nucleus relative to untreated cells (NF-κB(p65) [2]; LAP 1 μg/mL, 30 min): 120±23%
- increase of p65 in the nucleus relative to untreated cells (NF-κB(p65) [2]; LAP 1 μg/mL, 30 min): 218±32%
- time of appearance of cytoplasmic phospho-IκBα (Ser32) (NF-κB(p65) [2]; [4]): 15 min
- time of increase in nuclear p65 and P-p65 (NF-κB(p65) [2]; [4]): 30 min
- time by which most IκBα was degraded (NF-κB(p65) [2]; LAP 1000 ng/mL, 0-120 min): ≤ 45 min
- time of rapid degradation of IκBα (NF-κB(p65) [2]; LAP 1000 ng/mL, 0-120 min): ≤ 15 min
- increase of IKK-β protein expression (NF-κB(p65) [2]; [5]): 52±8%
- increase of p65 protein expression (NF-κB(p65) [2]; [5]): 54±8%
- TNF-α production (human TNF-α): significantly higher levels
